Broadly, the pIC50 is the negative decadic logarithm of the IC50, by convention in mol/L. The low end stands for a high IC50, the high end for a low IC50.

The source of these data is patent US6475806.

The assay deals with antibody to hCG. Briefly: competition: unlabelled hCG displacing hCG-I^125 from the antibody to hCG.

pIC50: −log10 of the molar value.

“hCG (from UniProt P01215 25-116; P0DN86 21-165) (ligand)” gave a pIC50 of 8.00.
